Test results as given in US6465254, “Mutant loxP site and applications thereof” (Sumitomo Pharmaceuticals Company, Limited).

Target: T1, Cre recombinase (UniProt P06956 P06956:1-343)
Assay: self x self; intermediate 4
Conditions: tags: expressed from recombinant adenovirus AxCANCre in 293 cells
Procedure: (§1) Substrate DNA (1 μg) prepared in (3) and cell extract containing Cre (10 μl) prepared in (1) were incubated at 37° C. for 30 min in a 50 μl volume of buffer containing 50 mM Tris-HCl (pH 7.5)/10 mM MgCl2/1 mg/ml bovine serum albumin/1 mM phenylmethylsulfonyl fluoride (PMSF)/5 μg/ml aprotinin. After completion of the reaction, 45 μl of TE buffer (pH 8.0) and 5 μl of EDTA solution (pH 8.0) were added to the reaction mixture, extracted with phenol/chloroform and with chloroform, followed ethanol precipitation. The recovered DNA was dissolveld in 30 μl of TE buffer (pH 8.0) containing RNase A (20 μg/ml). Half volume thereof was digested with restriction enzyme BsaHI. The DNA bands detected by ethidium bromide (EtBr) staining after agarose gel electrophoresis, were analyzed.
(§2) Before recombination mediated by Cre, restriction enzyme BsaHI digestion of linear substrate DNA (approx. 4.1 kb) generates four bands of 2.7 kb, 610 bp, 380 bp and 360 bp. On the other hand, as a result of recombination of substrate DNA mediated by Cre, a circular DNA of approx. 4.0 kb containing one mutant loxP, and a linear DNA of approx. 50 bp consisting of only mutant loxP, are produced. Digestion of these DNA with restriction enzyme BsaHI generates four bands of 2.7 kb, 920 bp, 380 bp and 50 bp (refer to FIG. 6).

T1 sequence (P06956 whole entry, one chain of several): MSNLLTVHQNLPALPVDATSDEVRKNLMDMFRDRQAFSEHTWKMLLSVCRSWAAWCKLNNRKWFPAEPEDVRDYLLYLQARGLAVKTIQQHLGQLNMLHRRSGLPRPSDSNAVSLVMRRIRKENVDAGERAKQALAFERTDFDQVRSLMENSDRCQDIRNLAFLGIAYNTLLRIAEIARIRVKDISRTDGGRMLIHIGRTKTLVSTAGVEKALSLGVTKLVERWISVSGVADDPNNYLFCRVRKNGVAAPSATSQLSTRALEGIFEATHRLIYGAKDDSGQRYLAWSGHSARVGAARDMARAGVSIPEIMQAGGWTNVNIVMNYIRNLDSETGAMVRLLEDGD

Row | Binder | activity [grade 0-9 final product]
1 | mutant loxP #11 (dsDNA) DNA 1: ATAACTTCGTATAGTGTATGCTATACGAAGTTAT DNA 2: ATAACTTCGTATAGCATACACTATACGAAGTTAT | 2
2 | mutant loxP #22 (dsDNA) DNA 1: ATAACTTCGTATAAAGTATGCTATACGAAGTTAT DNA 2: ATAACTTCGTATAGCATACTTTATACGAAGTTAT | 5
3 | mutant loxP #13 (dsDNA) DNA 1: ATAACTTCGTATACTGTATGCTATACGAAGTTAT DNA 2: ATAACTTCGTATAGCATACAGTATACGAAGTTAT | 3
4 | mutant loxP #21 (dsDNA) DNA 1: ATAACTTCGTATAACGTATGCTATACGAAGTTAT DNA 2: ATAACTTCGTATAGCATACGTTATACGAAGTTAT | 5

Target: T1, Cre recombinase
Assay: self x self; intermediate 3
Conditions: tags: expressed from recombinant adenovirus AxCANCre in 293 cells
Procedure: as §1, §2

Row | Binder | activity [grade 0-9 final product]
5 | mutant loxP #73 (dsDNA) DNA 1: ATAACTTCGTATAATGTATTCTATACGAAGTTAT DNA 2: ATAACTTCGTATAGAATACATTATACGAAGTTAT | 1
6 | mutant loxP #72 (dsDNA) DNA 1: ATAACTTCGTATAATGTATCCTATACGAAGTTAT DNA 2: ATAACTTCGTATAGGATACATTATACGAAGTTAT | 7

Target: T1, Cre recombinase
Assay: self x self; intermediate 5
Conditions: tags: expressed from recombinant adenovirus AxCANCre in 293 cells
Procedure: as §1, §2

Row | Binder | activity [grade 0-9 final product]
7 | mutant loxP #43 (dsDNA) DNA 1: ATAACTTCGTATAATGGATGCTATACGAAGTTAT DNA 2: ATAACTTCGTATAGCATCCATTATACGAAGTTAT | 6
8 | mutant loxP #31 (dsDNA) DNA 1: ATAACTTCGTATAATATATGCTATACGAAGTTAT DNA 2: ATAACTTCGTATAGCATATATTATACGAAGTTAT | 7
9 | mutant loxP #42 (dsDNA) DNA 1: ATAACTTCGTATAATGAATGCTATACGAAGTTAT DNA 2: ATAACTTCGTATAGCATTCATTATACGAAGTTAT | 6

Target: T1, Cre recombinase
Assay: self x self; intermediate 4
Conditions: tags: expressed from recombinant adenovirus AxCANCre in 293 cells
Remark: another data set of the same source

Row | Binder | activity [grade 0-9 final product]
10 | mutant loxP #3171 (dsDNA) DNA 1: ATAACTTCGTATAATATATACTATACGAAGTTAT DNA 2: ATAACTTCGTATAGTATATATTATACGAAGTTAT | 7
11 | mutant loxP #4271 (dsDNA) DNA 1: ATAACTTCGTATAATGAATACTATACGAAGTTAT DNA 2: ATAACTTCGTATAGTATTCATTATACGAAGTTAT | 2
12 | mutant loxP #2172 (dsDNA) DNA 1: ATAACTTCGTATAACGTATCCTATACGAAGTTAT DNA 2: ATAACTTCGTATAGGATACGTTATACGAAGTTAT | 2
13 | mutant loxP #4272 (dsDNA) DNA 1: ATAACTTCGTATAATGAATCCTATACGAAGTTAT DNA 2: ATAACTTCGTATAGGATTCATTATACGAAGTTAT | 1
14 | mutant loxP #4371 (dsDNA) DNA 1: ATAACTTCGTATAATGGATACTATACGAAGTTAT DNA 2: ATAACTTCGTATAGTATCCATTATACGAAGTTAT | 2

Target: T1, Cre recombinase
Assay: self x self; intermediate 6
Conditions: tags: expressed from recombinant adenovirus AxCANCre in 293 cells

Row | Binder | activity [grade 0-9 final product]
15 | mutant loxP #3272 (dsDNA) DNA 1: ATAACTTCGTATAATCTATCCTATACGAAGTTAT DNA 2: ATAACTTCGTATAGGATAGATTATACGAAGTTAT | 2
16 | mutant loxP #3373 (dsDNA) DNA 1: ATAACTTCGTATAATTTATTCTATACGAAGTTAT DNA 2: ATAACTTCGTATAGAATAAATTATACGAAGTTAT | 2
17 | mutant loxP #2373 (dsDNA) DNA 1: ATAACTTCGTATAAGGTATTCTATACGAAGTTAT DNA 2: ATAACTTCGTATAGAATACCTTATACGAAGTTAT | 1
18 | mutant loxP #3372 (dsDNA) DNA 1: ATAACTTCGTATAATTTATCCTATACGAAGTTAT DNA 2: ATAACTTCGTATAGGATAAATTATACGAAGTTAT | 1

Target: T1, Cre recombinase
Assay: self x self; intermediate 6
Conditions: tags: expressed from recombinant adenovirus AxCANCre in 293 cells
Remark: another data set of the same source
Procedure: as §1, §2

Row | Binder | activity [grade 0-9 final product]
19 | mutant loxP #33 (dsDNA) DNA 1: ATAACTTCGTATAATTTATGCTATACGAAGTTAT DNA 2: ATAACTTCGTATAGCATAAATTATACGAAGTTAT | 6
20 | mutant loxP #32 (dsDNA) DNA 1: ATAACTTCGTATAATCTATGCTATACGAAGTTAT DNA 2: ATAACTTCGTATAGCATAGATTATACGAAGTTAT | 3
21 | mutant loxP #23 (dsDNA) DNA 1: ATAACTTCGTATAAGGTATGCTATACGAAGTTAT DNA 2: ATAACTTCGTATAGCATACCTTATACGAAGTTAT | 5
22 | mutant loxP #12 (dsDNA) DNA 1: ATAACTTCGTATATTGTATGCTATACGAAGTTAT DNA 2: ATAACTTCGTATAGCATACAATATACGAAGTTAT | 3

Target: T1, Cre recombinase
Assay: self x self; intermediate 1
Conditions: tags: expressed from recombinant adenovirus AxCANCre in 293 cells
Procedure: as §1, §2

Row | Binder | activity [grade 0-9 final product]
23 | mutant loxP #53 (dsDNA) DNA 1: ATAACTTCGTATAATGTCTGCTATACGAAGTTAT DNA 2: ATAACTTCGTATAGCAGACATTATACGAAGTTAT | 8
24 | mutant loxP #62 (dsDNA) DNA 1: ATAACTTCGTATAATGTAAGCTATACGAAGTTAT DNA 2: ATAACTTCGTATAGCTTACATTATACGAAGTTAT | 8
25 | mutant loxP #51 (dsDNA) DNA 1: ATAACTTCGTATAATGTGTGCTATACGAAGTTAT DNA 2: ATAACTTCGTATAGCACACATTATACGAAGTTAT | 9
26 | mutant loxP #52 (dsDNA) DNA 1: ATAACTTCGTATAATGTTTGCTATACGAAGTTAT DNA 2: ATAACTTCGTATAGCAAACATTATACGAAGTTAT | 9
27 | mutant loxP #61 (dsDNA) DNA 1: ATAACTTCGTATAATGTACGCTATACGAAGTTAT DNA 2: ATAACTTCGTATAGCGTACATTATACGAAGTTAT | 8
28 | mutant loxP #63 (dsDNA) DNA 1: ATAACTTCGTATAATGTAGGCTATACGAAGTTAT DNA 2: ATAACTTCGTATAGCCTACATTATACGAAGTTAT | 9
29 | mutant loxP #41 (dsDNA) DNA 1: ATAACTTCGTATAATGCATGCTATACGAAGTTAT DNA 2: ATAACTTCGTATAGCATGCATTATACGAAGTTAT | 7

Target: T1, Cre recombinase
Assay: self x self; intermediate 3
Conditions: tags: expressed from recombinant adenovirus AxCANCre in 293 cells
Remark: another data set of the same source

Row | Binder | activity [grade 0-9 final product]
30 | mutant loxP #2171 (dsDNA) DNA 1: ATAACTTCGTATAACGTATACTATACGAAGTTAT DNA 2: ATAACTTCGTATAGTATACGTTATACGAAGTTAT | 3
31 | mutant loxP #2273 (dsDNA) DNA 1: ATAACTTCGTATAAAGTATTCTATACGAAGTTAT DNA 2: ATAACTTCGTATAGAATACTTTATACGAAGTTAT | 4
32 | mutant loxP #4372 (dsDNA) DNA 1: ATAACTTCGTATAATGGATCCTATACGAAGTTAT DNA 2: ATAACTTCGTATAGGATCCATTATACGAAGTTAT | 2
33 | mutant loxP #3271 (dsDNA) DNA 1: ATAACTTCGTATAATCTATACTATACGAAGTTAT DNA 2: ATAACTTCGTATAGTATAGATTATACGAAGTTAT | 4
34 | mutant loxP #2371 (dsDNA) DNA 1: ATAACTTCGTATAAGGTATACTATACGAAGTTAT DNA 2: ATAACTTCGTATAGTATACCTTATACGAAGTTAT | 2

Target: T1, Cre recombinase
Assay: self x self; intermediate 1
Conditions: tags: expressed from recombinant adenovirus AxCANCre in 293 cells
Remark: another data set of the same source

Row | Binder | activity [grade 0-9 final product]
35 | mutant loxP #6373 (dsDNA) DNA 1: ATAACTTCGTATAATGTAGTCTATACGAAGTTAT DNA 2: ATAACTTCGTATAGACTACATTATACGAAGTTAT | 2
36 | mutant loxP #5373 (dsDNA) DNA 1: ATAACTTCGTATAATGTCTTCTATACGAAGTTAT DNA 2: ATAACTTCGTATAGAAGACATTATACGAAGTTAT | 2
37 | mutant loxP #5272 (dsDNA) DNA 1: ATAACTTCGTATAATGTTTCCTATACGAAGTTAT DNA 2: ATAACTTCGTATAGGAAACATTATACGAAGTTAT | 4
38 | mutant loxP #6272 (dsDNA) DNA 1: ATAACTTCGTATAATGTAACCTATACGAAGTTAT DNA 2: ATAACTTCGTATAGGTTACATTATACGAAGTTAT | 2
